{"source": "paper PMC12360793", "about": "(2025)", "binders": {"B1": {"name": "dimeric P.dav ACE2 ectodomain (residues 17–728, avi-His8) (domain or fragment)", "chain": "AQSTTEELAKTFLEKFNHEAEELSYQSSLASWNYNTNITDENVQKMNEAGAKWSAFYEEQSKLAKTYPLAEIHNTTVKRQLQALQQSGSSVLSADKSQRLNTILNAMSTIYSTGKACNPNNPQECLLLEPGLDDIMENSKDYNERLWAWEGWRAEVGKQLRPLYEEYVALKNEMARANNYEDYGDYWRGDYEEEWTDGYNYSRSQLIKDVEHTFTQIKPLYQHLHAYVRAKLMDTYPSRISPTGCLPAHLLGDMWGRFWTNLYPLTVPFGQKPNIDVTDAMVNQSWDARRIFKEAEKFFVSVGLPNMTQGFWENSMLTEPGDSRKVVCHPTAWDLGKGDFRIKMCTKVTMDDFLTAHHEMGHIQYDMAYAVQPFLLRNGANEGFHEAVGEIMSLSAATPNHLKTIGLLSPGFSEDSETEINFLLKQALTIVGTLPFTYMLEKWRWMVFKGEIPKEQWMQKWWEMKREIVGVVEPVPHDETYCDPASLFHVANDYSFIRYYTRTIYQFQFQEALCRIAKHEGPLHKCDISNSSEAGKKLLQMLTLGKSKPWTLALEHVVGEKKMNVTPLLKYFEPLFTWLKEQNRNSFVGWNTDWRPYADQSIKVRISLKSALGDEAYEWNDNEMYLFRSSVAYAMREYFSKVKNQTIPFVEDNVWVSNLKPRISFNFFVTASKNVSDVIPRSEVEEAIRMSRSRINDAFRLDDNSLEFLGIQ"}, "B2": {"name": "monomeric P.dav ACE2 ectodomain (residues 17–613, avi-His8) (domain or fragment)", "chain": "AQSTTEELAKTFLEKFNHEAEELSYQSSLASWNYNTNITDENVQKMNEAGAKWSAFYEEQSKLAKTYPLAEIHNTTVKRQLQALQQSGSSVLSADKSQRLNTILNAMSTIYSTGKACNPNNPQECLLLEPGLDDIMENSKDYNERLWAWEGWRAEVGKQLRPLYEEYVALKNEMARANNYEDYGDYWRGDYEEEWTDGYNYSRSQLIKDVEHTFTQIKPLYQHLHAYVRAKLMDTYPSRISPTGCLPAHLLGDMWGRFWTNLYPLTVPFGQKPNIDVTDAMVNQSWDARRIFKEAEKFFVSVGLPNMTQGFWENSMLTEPGDSRKVVCHPTAWDLGKGDFRIKMCTKVTMDDFLTAHHEMGHIQYDMAYAVQPFLLRNGANEGFHEAVGEIMSLSAATPNHLKTIGLLSPGFSEDSETEINFLLKQALTIVGTLPFTYMLEKWRWMVFKGEIPKEQWMQKWWEMKREIVGVVEPVPHDETYCDPASLFHVANDYSFIRYYTRTIYQFQFQEALCRIAKHEGPLHKCDISNSSEAGKKLLQMLTLGKSKPWTLALEHVVGEKKMNVTPLLKYFEPLFTWLKEQNRNSFVGWNTDWRPY"}, "B3": {"name": "dimeric P.nat ACE2 ectodomain (residues 17–729, avi-His8) (domain or fragment)", "chain": "AQSLTTEEKAREFLDKFNSEAENWSHESALASWDYNTNINDKNAQKMNEADSKWSAFYKEHSKLAQGFPLQEIQNSTIKLQLQILQQNGSSVLTAEKSKRLSTILTTMSTIYSTGKVCNPNNPQQCFTLSGLEDIMEKSKDYHQRLWIWEGWRSEVGKQLRPLYEEYVALKNEMARGNNYKDYGDYWRGDYETEGGDGYNYSRNHLIEDVDRIFLEIKPLYEQLHAYVRAKLMNAYPSRISPTGCLPAHLLGDMWGRFWTNLYNLTVPFEKKQNIDVTDTMKKQSWDAEKIFKEAEKFYLSVGLHNMTPEFWNNSMLTEPSDGRQVVCHPTAWDLGKNDFRIKMCTKVTMDDFLTAHHEMGHIQYDMAYAKQPYLLRNGANEGFHEAVGEVMSLSVATPKHLKGMGLLPSNFSEDCETEINFLLKQALNIVGTLPFTYMLEKWRWMVFEGKIPKEQWMEKWWEMKREIVGVVEPLPHDETYCDPASLFHVANDYSFIRYFTRTILEFQFQEALCQIANHTGPLHKCDISNSTEAGKQLKNMLELGKSKPWTFALEQIARTKEMDAKPLLNYFKPLFSWLKEQNGNSVGWSADWSPYSEQSIKVRISLKSALGEKAYEWNDNEMYLFRSSVAYAMRVYFLKVKNETIPFRAEDVWVSDEKIRVSFKFFVTSPTNVSDIIPRSEVEDAIRMSRGRINDAFRLDDKTLEFLGIQPT"}, "B4": {"name": "soluble dimeric P.nat ACE2 ectodomain (residues 18–739, twin-strep-3×FLAG) (domain or fragment)", "chain": "QSLTTEEKAREFLDKFNSEAENWSHESALASWDYNTNINDKNAQKMNEADSKWSAFYKEHSKLAQGFPLQEIQNSTIKLQLQILQQNGSSVLTAEKSKRLSTILTTMSTIYSTGKVCNPNNPQQCFTLSGLEDIMEKSKDYHQRLWIWEGWRSEVGKQLRPLYEEYVALKNEMARGNNYKDYGDYWRGDYETEGGDGYNYSRNHLIEDVDRIFLEIKPLYEQLHAYVRAKLMNAYPSRISPTGCLPAHLLGDMWGRFWTNLYNLTVPFEKKQNIDVTDTMKKQSWDAEKIFKEAEKFYLSVGLHNMTPEFWNNSMLTEPSDGRQVVCHPTAWDLGKNDFRIKMCTKVTMDDFLTAHHEMGHIQYDMAYAKQPYLLRNGANEGFHEAVGEVMSLSVATPKHLKGMGLLPSNFSEDCETEINFLLKQALNIVGTLPFTYMLEKWRWMVFEGKIPKEQWMEKWWEMKREIVGVVEPLPHDETYCDPASLFHVANDYSFIRYFTRTILEFQFQEALCQIANHTGPLHKCDISNSTEAGKQLKNMLELGKSKPWTFALEQIARTKEMDAKPLLNYFKPLFSWLKEQNGNSVGWSADWSPYSEQSIKVRISLKSALGEKAYEWNDNEMYLFRSSVAYAMRVYFLKVKNETIPFRAEDVWVSDEKIRVSFKFFVTSPTNVSDIIPRSEVEDAIRMSRGRINDAFRLDDKTLEFLGIQPTLGPPYQPPVT"}, "B5": {"name": "soluble dimeric P.nat.M1 ACE2 ectodomain (twin-strep-3×FLAG) (domain or fragment)", "chain": "B4 chain with V390I, V395A, G403D, M404L, P408A, S409Q, F411Y, S412P, C415Y"}}, "test_in_all_cases": "BLI", "key": {"[1]": {"molecular_target": "T1, biotinylated monomeric MOW15–22 RBD (MOW15–22 (bat MERSr-CoV sampled in …))"}, "[2]": {"molecular_target": "T1, biotinylated monomeric MOW15–22 RBD", "remark": "listed apart in the source"}, "PnNL2018B S1-hFc [3]": {"molecular_target": "T2, PnNL2018B S1-hFc (PnNL2018B (bat MERSr-CoV sampled in …))"}, "PnNL2018B S1-hFc [4]": {"molecular_target": "T2, PnNL2018B S1-hFc", "remark": "listed apart in the source"}}, "note": "Residue numbers refer to the chain shown, from its start. Where two headings read alike, the source gives them in different places."}
{"binder": "B1", "values": [{"measurement": "koff", "setting": "[1]", "result": 0.000712, "unit": "s⁻¹"}]}
{"binder": "B2", "values": [{"measurement": "koff", "setting": "[1]", "result": 0.0567, "unit": "s⁻¹"}]}
{"binder": "B3", "values": [{"measurement": "koff", "setting": "[2]", "result": 0.000301, "unit": "s⁻¹"}]}
{"binder": "B4", "values": [{"measurement": "Kd", "setting": "PnNL2018B S1-hFc [3]", "result": 183, "unit": "nM"}, {"measurement": "koff", "setting": "PnNL2018B S1-hFc [3]", "result": 0.00727, "unit": "s⁻¹"}]}
{"binder": "B5", "values": [{"measurement": "Kd", "setting": "PnNL2018B S1-hFc [4]", "result": 16.9, "unit": "nM"}, {"measurement": "koff", "setting": "PnNL2018B S1-hFc [4]", "result": 0.00179, "unit": "s⁻¹"}]}
